Data published in patent publication US20230407373A1 (priority 2020, published 2023).

B1: HNANPA0 (protein, UniProt Q13151 1-305, looked up)
Heterogeneous nuclear …: MENSQLCKLFIGGLNVQTSESGLRGHFEAFGTLTDCVVVVNPQTKRSRCFGFVTYSNVEEADAAMAASPHAVDGNTVELKRAVSREDSARPGAHAKVKKLFVGGLKGDVAEGDLIEHFSQFGTVEKAEIIADKQSGKKRGFGFVYFQNHDAADKAAVVKFHPIQGHRVEVKKAVPKEDIYSGGGGGGSRSSRGGRGGRGRGGGRDQNGLSKGGGGGYNSYGGYGGGGGGGYNAYGGGGGGSSYGGSDYGNGFGGFGSYSQHQSSYGPMKSGGGGGGGGSSWGGRSNSGPYRGGYGGGGGYGGSSF
B2: HNANPA3 (protein, UniProt P51991 1-378, looked up)
Heterogeneous nuclear …: MEVKPPPGRPQPDSGRRRRRRGEEGHDPKEPEQLRKLFIGGLSFETTDDSLREHFEKWGTLTDCVVMRDPQTKRSRGFGFVTYSCVEEVDAAMCARPHKVDGRVVEPKRAVSREDSVKPGAHLTVKKIFVGGIKEDTEEYNLRDYFEKYGKIETIEVMEDRQSGKKRGFAFVTFDDHDTVDKIVVQKYHTINGHNCEVKKALSKQEMQSAGSQRGRGGGSGNFMGRGGNFGGGGGNFGRGGNFGGRGGYGGGGGGSRGSYGGGDGGYNGFGGDGGNYGGGPGYSSRGGYGGGGPGYGNQGGGYGGGGGYDGYNEGGNFGGGNYGGGGNYNDFGNYSGQQQSNYGPMKGGSFGGRSSGSPYGGGYGSGGGSGGYGSRRF
B3: DRX30 (protein, UniProt Q7L2E3 1-1194, looked up)
ATP-dependent RNA helicase …: MFSLDSFRKDRAQHRQRQCKLPPPRLPPMCVNPTPGGTISRASRDLLKEFPQPKNLLNSVIGRALGISHAKDKLVYVHTNGPKKKKVTLHIKWPKSVEVEGYGSKKIDAERQAAAAACQLFKGWGLLGPRNELFDAAKYRVLADRFGSPADSWWRPEPTMPPTSWRQLNPESIRPGGPGGLSRSLGREEEEDEEEELEEGTIDVTDFLSMTQQDSHAPLRDSRGSSFEMTDDDSAIRALTQFPLPKNLLAKVIQIATSSSTAKNLMQFHTVGTKTKLSTLTLLWPCPMTFVAKGRRKAEAENKAAALACKKLKSLGLVDRNNEPLTHAMYNLASLRELGETQRRPCTIQVPEPILRKIETFLNHYPVESSWIAPELRLQSDDILPLGKDSGPLSDPITGKPYVPLLEAEEVRLSQSLLELWRRRGPVWQEAPQLPVDPHRDTILNAIEQHPVVVISGDTGCGKTTRIPQLLLERYVTEGRGARCNVIITQPRRISAVSVAQRVSHELGPSLRRNVGFQVRLESKPPSRGGALLFCTVGILLRKLQSNPSLEGVSHVIVDEVHERDVNTDFLLILLKGLQRLNPALRLVLMSATGDNERFSRYFGGCPVIKVPGFMYPVKEHYLEDILAKLGKHQYLHRHRHHESEDECALDLDLVTDLVLHIDARGEPGGILCFLPGWQEIKGVQQRLQEALGMHESKYLILPVHSNIPMMDQKAIFQQPPVGVRKIVLATNIAETSITINDIVHVVDSGLHKEERYDLKTKVSCLETVWVSRANVIQRRGRAGRCQSGFAYHLFPRSRLEKMVPFQVPEILRTPLENLVLQAKIHMPEKTAVEFLSKAVDSPNIKAVDEAVILLQEIGVLDQREYLTTLGQRLAHISTDPRLAKAIVLAAIFRCLHPLLVVVSCLTRDPFSSSLQNRAEVDKVKALLSHDSGSDHLAFVRAVAGWEEVLRWQDRSSRENYLEENLLYAPSLRFIHGLIKQFSENIYEAFLVGKPSDCTLASAQCNEYSEEEELVKGVLMAGLYPNLIQVRQGKVTRQGKFKPNSVTYRTKSGNILLHKSTINREATRLRSRWLTYFMAVKSNGSVFVRDSSQVHPLAVLLLTDGDVHIRDDGRRATISLSDSDLLRLEGDSRTVRLLKELRRALGRMVERSLRSELAALPPSVQEEHGQLLALLAELLRGPCGSFDVRKTADD
B4: KRT9 (protein, UniProt P35527 1-623, looked up)
Keratin, type I cytoskeletal 9: MSCRQFSSSYLSRSGGGGGGGLGSGGSIRSSYSRFSSSGGGGGGGRFSSSSGYGGGSSRVCGRGGGGSFGYSYGGGSGGGFSASSLGGGFGGGSRGFGGASGGGYSSSGGFGGGFGGGSGGGFGGGYGSGFGGFGGFGGGAGGGDGGILTANEKSTMQELNSRLASYLDKVQALEEANNDLENKIQDWYDKKGPAAIQKNYSPYYNTIDDLKDQIVDLTVGNNKTLLDIDNTRMTLDDFRIKFEMEQNLRQGVDADINGLRQVLDNLTMEKSDLEMQYETLQEELMALKKNHKEEMSQLTGQNSGDVNVEINVAPGKDLTKTLNDMRQEYEQLIAKNRKDIENQYETQITQIEHEVSSSGQEVQSSAKEVTQLRHGVQELEIELQSQLSKKAALEKSLEDTKNRYCGQLQMIQEQISNLEAQITDVRQEIECQNQEYSLLLSIKMRLEKEIETYHNLLEGGQEDFESSGAGKIGLGGRGGSGGSYGRGSRGGSGGSYGGGGSGGGYGGGSGSRGGSGGSYGGGSGSGGGSGGGYGGGSGGGHSGGSGGGHSGGSGGNYGGGSGSGGGSGGGYGGGSGSRGGSGGSHGGGSGFGGESGGSYGGGEEASGSGGGYGGGSGKSSHS
B5: KPRP (protein, UniProt Q5T749 1-579, looked up)
Keratinocyte proline-rich …: MCDQQQIQCRLPLQQCCVKGPSFCSSQSPFAQSQVVVQAPCEMQIVDCPASCPVQVCQVSDQAPCQSQTTQVKCQSKTKQVKGQAQCQSKTTQVKGQAASQSQTSSVQSQAPCQSEVSYVQCEASQPVQTCFVECAPVCYTETCYVECPVQNYVPCPAPQPVQMYRGRPAVCQPQGRFSTQCQYQGSYSSCGPQFQSRATCNNYTPQFQLRPSYSSCFPQYRSRTSFSPCVPQCQTQGSYGSFTEQHRSRSTSRCLPPPRRLQLFPRSCSPPRRFEPCSSSYLPLRPSEGFPNYCTPPRRSEPIYNSRCPRRPISSCSQRRGPKCRIEISSPCCPRQVPPQRCPVEIPPIRRRSQSCGPQPSWGASCPELRPHVEPRPLPSFCPPRRLDQCPESPLQRCPPPAPRPRLRPEPCISLEPRPRPLPRQLSEPCLYPEPLPALRPTPRPVPLPRPGQCEIPEPRPCLQPCEHPEPCPRPEPIPLPAPCPSPEPCRETWRSPSPCWGPNPVPYPGDLGCHESSPHRLDTEAPYCGPSSYNQGQESGAGCGPGDVFPERRGQDGHGDQGNAFAGVKGEAKSAYF
B6: DSG1 (protein, UniProt Q02413 50-1049, looked up)
Desmoglein-1: EWIKFAAACREGEDNSKRNPIAKIHSDCAANQQVTYRISGVGIDQPPYGIFVINQKTGEINITSIVDREVTPFFIIYCRALNSMGQDLERPLELRVRVLDINDNPPVFSMATFAGQIEENSNANTLVMILNATDADEPNNLNSKIAFKIIRQEPSDSPMFIINRNTGEIRTMNNFLDREQYGQYALAVRGSDRDGGADGMSAECECNIKILDVNDNIPYMEQSSYTIEIQENTLNSNLLEIRVIDLDEEFSANWMAVIFFISGNEGNWFEIEMNERTNVGILKVVKPLDYEAMQSLQLSIGVRNKAEFHHSIMSQYKLKASAISVTVLNVIEGPVFRPGSKTYVVTGNMGSNDKVGDFVATDLDTGRPSTTVRYVMGNNPADLLAVDSRTGKLTLKNKVTKEQYNMLGGKYQGTILSIDDNLQRTCTGTININIQSFGNDDRTNTEPNTKITTNTGRQESTSSTNYDTSTTSTDSSQVYSSEPGNGAKDLLSDNVHFGPAGIGLLIMGFLVLGLVPFLMICCDCGGAPRSAAGFEPVPECSDGAIHSWAVEGPQPEPRDITTVIPQIPPDNANIIECIDNSGVYTNEYGGREMQDLGGGERMTGFELTEGVKTSGMPEICQEYSGTLRRNSMRECREGGLNMNFMESYFCQKAYAYADEDEGRPSNDCLLIYDIEGVGSPAGSVGCCSFIGEDLDDSFLDTLGPKFKKLADISLGKESYPDLDPSWPPQSTEPVCLPQETEPVVSGHPPISPHFGTTTVISESTYPSGPGVLHPKPILDPLGYGNVTVTESYTTSDTLKPSVHVHDNRPASNVVVTERVVGPISGADLHGMLEMPDLRDGSNVIVTERVIAPSSSLPTSLTIHHPRESSNVVVTERVIQPTSGMIGSLSMHPELANAHNVIVTERVVSGAGVTGISGTTGISGGIGSSGLVGTSMGAGSGALSGAGISGGGIGLSSLGGTASIGHMRSSSDHHFNQTIGSASPSTARSRITKYSTVQYSK

tested on: HCoV-OC43 gRNA and sgRNA; type: binding; settings: OC43 Probe II, 12 hpi (type n_12_v), infected cells; tested against no-probe control

Molecule	target (unweighted spectral count)
B1	5
B2	14

same assay, conditions: OC43 Probe II, 24 hpi (type n_24_v), infected cells; tested against no-probe control

Molecule	target (unweighted spectral count)
B1	7
B3	10
B4	53
B5	15
B6	8
